Where a chain is given by its changes, count along the chain named. In names and notes the source's numbering stands.
B1: FKBP-064: FKBP13 DRD Q72R, Q84E, A117H, R102L; SEQ ID NO: 20 (protein)
chain: HCPIKSRKGDVLHMHYTGKLEDGTEFDSSLPRNQPFVFSLGTGEVIKGWDQGLLGMCEGEKLKLVIPSELGYGERGHPPKIPGGATLVFEVELLKIER
modifications: Description of sequence: FKBP13-AcGFP-mCherry Fusion; Construct Name: FKBP-064; FKBP13 DRD in Construct : FKBP13 (mutated to match FKBP12 active site - Q72R Q84E A117H) (DRD - R102L)
B2: FKBP-094: FKBP13 DRD Q72R, Q84E, A117H, P107S; SEQ ID NO: 44 (protein)
chain: B1 chain with L62R, P67S
modifications: Description of sequence: FKBP13-AcGFP-mCherry Fusion; Construct Name: FKBP-094; FKBP13 DRD in Construct : FKBP13 (mutated to match FKBP12 active site Q72R Q84E A117H) (DRD - P107S)
B3: FKBP-097: FKBP13 DRD Q72R, Q84E, A117H, E100S; SEQ ID NO: 47 (protein)
chain: B1 chain with E60S, L62R
modifications: Description of sequence: FKBP13-AcGFP-mCherry Fusion; Construct Name: FKBP-097; FKBP13 DRD in Construct : FKBP13 (mutated to match FKBP12 active site Q72R Q84E A117H) (DRD - E100S)
B4: FKBP-095: FKBP13 DRD Q72R, Q84E, A117H, P122S; SEQ ID NO: 45 (protein)
chain: B1 chain with L62R, P82S
modifications: Description of sequence: FKBP13-AcGFP-mCherry Fusion; Construct Name: FKBP-095; FKBP13 DRD in Construct : FKBP13 (mutated to match FKBP12 active site Q72R Q84E A117H) (DRD - P122S)
B5: FKBP-084: FKBP13 trunc2 DRD Q72R, Q84E, A117H, M54A; SEQ ID NO: 34 (protein)
chain: PIKSRKGDVLHAHYTGKLEDGTEFDSSLPRNQPFVFSLGTGEVIKGWDQGLLGMCEGEKRKLVIPSELGYGERGHPPKIPGGATLVFEVELLKIER
modifications: truncated (trunc2); Description of sequence: FKBP13-AcGFP-mCherry Fusion; Construct Name: FKBP-084; FKBP13 DRD in Construct : FKBP13 trunc2 (mutated to match FKBP12 active site Q72R Q84E A117H) (DRD - M54A)
B6: FKBP-085: FKBP13 trunc1WT DRD Q72R, Q84E, A117H; SEQ ID NO: 35 (protein)
chain: CPIKSRKGDVLHMHYTGKLEDGTEFDSSLPRNQPFVFSLGTGEVIKGWDQGLLGMCEGEKRKLVIPSELGYGERGHPPKIPGGATLVFEVELLKIER
modifications: truncated (trunc1); Description of sequence: FKBP13-AcGFP-mCherry Fusion; Construct Name: FKBP-085; FKBP13 DRD in Construct : FKBP13 trunc1WT (mutated to match FKBP12 active site Q72R Q84E A117H) (DRD - WT)

system: Jurkat cells; assay: Tacrolimus dose response of FKBP13-AcGFP-mCherry constructs stably transduced into Jurkat cells, GFP MFI by flow cytometry; type: cell-based; details: tacrolimus dose response, Jurkat cells stably transduced (FIG. 4); Table 4
Method: The regulation of AcGFP, from FKBP13-AcGFP-mCherry constructs, in Jurkat cells, was also studied. Jurkat Clone E6-1 cells were cultured in standard media (RPMI+GlutaMAX Supplement (Life Technologies, Carlsbad, CA Cat #61870127), Fetal Bovine Serum (FBS) (Life Technologies Cat #10-082-147)). Jurkat cells were transduced with lentivirus produced with each of FKBP-039, FKBP-040, FKBP-041, FKBP-042, FKBP-043, FKBP-044, or FKBP-045 constructs. Jurkat cells were transduced until they were 10-25% positive, as determined on day 5 post-transduction, by using mCherry as a transduction marker. […] The Geometric Mean Fluorescent Intensity (MFI) of GFP expression in mCherry+ cells was plotted and dose response curve fits were performed using Prism Software (San Diego, CA).
FKBP-091 was used as a comparative construct.
FIGS. 22-38 show the results of characterization of FKBP-160-292. […] FKBP-091 and FKBP-117 was used as a comparative control for FKBP-160-FKBP-255. FKBP-195 was used as a comparative control for FKBP-256-FKBP-275. FKBP-117, FPBP-195 and FKBP-251 were used as a comparative control for FKBP-276-FKBP-292.
FKBP mutants were cloned in a manner to make a fusion protein with AcGFP in order to assess FKBP mutant regulation by using AcGFP expression as a readout. […] Further iterative FKBP mutants (FKBP-256-FKBP-292) were constructed from these initial combinatorial mutants to see if we could further improve FKBP DRD properties.

B1 was tested, and the Fold Change was 21.6.

same assay, conditions: tacrolimus dose response, Jurkat cells stably transduced (FIG. 10); Table 5

Compared with B2, B3 is higher in “Fold Change” value: 13.5 for the first, 36.75 for the second.

Going from B4 to B5, the “Fold Change” value falls from 31.4 to 12.42.

For B6, the “Fold Change” value was 16.09.
